Source: the supplement of paper PMC10065799, “High-throughput profiling of sequence recognition by tyrosine kinases and SH2 domains using bacterial peptide display” (eLife, 2023)

target: FGFR3 (UniProt P22607); assay: phosphorylation enrichment, bacterial display (enrichment ratio); higher = better substrate or ligand; peptides without Tyr show the background
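Also: 11-residue human phosphosite peptides and single-mutation variants displayed on the E. coli surface, counted by deep sequencing, each peptide's frequency after selection divided by its frequency in the unselected input library; frequency after pTyr selection over input frequency; kinase dosed for 20-30% of maximal phosphorylation in three min.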

FGFR3, sequence (P22607 whole entry, looked up): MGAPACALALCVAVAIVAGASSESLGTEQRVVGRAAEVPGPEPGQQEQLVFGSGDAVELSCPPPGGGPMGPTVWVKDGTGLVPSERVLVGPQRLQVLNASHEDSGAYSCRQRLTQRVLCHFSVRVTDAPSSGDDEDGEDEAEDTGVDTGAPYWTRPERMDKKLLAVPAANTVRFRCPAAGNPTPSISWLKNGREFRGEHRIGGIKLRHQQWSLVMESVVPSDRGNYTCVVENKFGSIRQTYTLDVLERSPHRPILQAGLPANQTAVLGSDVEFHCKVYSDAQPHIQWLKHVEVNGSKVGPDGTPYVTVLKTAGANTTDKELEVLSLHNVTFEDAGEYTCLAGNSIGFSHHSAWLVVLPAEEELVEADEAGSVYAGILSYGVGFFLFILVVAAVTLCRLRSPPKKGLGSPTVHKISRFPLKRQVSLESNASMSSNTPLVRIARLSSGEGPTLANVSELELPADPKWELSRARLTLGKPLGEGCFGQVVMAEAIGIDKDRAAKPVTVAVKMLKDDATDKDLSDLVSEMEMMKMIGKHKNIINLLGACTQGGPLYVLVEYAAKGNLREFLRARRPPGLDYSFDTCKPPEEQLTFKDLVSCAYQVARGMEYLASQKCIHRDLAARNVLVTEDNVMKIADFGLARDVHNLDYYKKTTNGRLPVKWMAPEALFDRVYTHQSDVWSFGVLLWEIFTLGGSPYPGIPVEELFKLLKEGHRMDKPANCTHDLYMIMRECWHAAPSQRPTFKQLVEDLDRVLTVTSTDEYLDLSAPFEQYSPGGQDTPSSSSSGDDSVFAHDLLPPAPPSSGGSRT

Sequence | phosphorylation enrichment
GFKVRYATGSI [FGFR1_Y210_W213G_YF] | 0.471
KLADMYGGGKD [CDH1_Y876_E880K] | 0.424
HTKKNYGNSSV [HDX_Y197_A193T] | 0.515
TCFDKYTGSTF [FN1_Y101_N104S_YF] | 0.699
ECKASYPGKIT [PRSS3_Y232] | 0.418
GMAHNYRNSSQ [AASS_Y188] | 0.431
EFITRYIASLK [PSMA7_Y110_YF] | 0.536
RKLVDYDSAQH [BIN1_Y150_R154Q] | 1.28
KALKQYRASPS [DDX27_Y763_G766S] | 0.309
DEQKKYYNAMK [SCN5A_Y1494_E1489D] | 0.508
GDLTDYLMKIL [ACTA1_Y190_R185G] | 0.509
ISIFYYAKGQP [MPZ_Y82_H81Y] | 0.674
QNTGDYYDLYG [PTPN11_Y62] | 16.1
PAVGIYNDNIN [CDCP1_Y707] | 0.575
KAEELYIGVTV [EFHC2_Y509] | 2.33
QNTGDYCDLFG [PTPN11_Y62_Y63C_YF] | 3.7
ETGEPYRLSPE [EIF4G1_Y311] | 0.783
MTYVFYRENLR [NLRP14_Y443] | 0.967
LAVGDYMRRQK [ATM_Y1915_V1913G] | 0.411
ADKAAYLQNLN [MYH1_Y389] | 0.637
RKQQLYIAMEE [CCDC39_Y593_T594I] | 0.543
CTTIHYNFMHN [TP53_Y234_C238H_YF] | 0.676
NVTRKYTRQIL [MAP3K2_Y463] | 0.353
KVDKEYEVHVR [GHR_Y226_R229H] | 0.555
SDFSRYARTSI [TERT_Y949_S948R_YF] | 0.487
GEDLSYGDLPP [IRS1_Y151_V154L] | 0.786
GKGGSYSKAEW [HLA-E_Y341] | 0.378
QNTGDDYDLYG [PTPN11_Y62_Y62D] | 1.51
KIRDWYQRQRP [KRT14_Y151] | 0.419

system: Fer (mouse); assay: as above

Sequence | phosphorylation enrichment
GFKVRYATGSI [FGFR1_Y210_W213G_YF] | 0.362
KLADMYGGGKD [CDH1_Y876_E880K] | 0.414
HTKKNYGNSSV [HDX_Y197_A193T] | 0.393
TCFDKYTGSTF [FN1_Y101_N104S_YF] | 0.469
ECKASYPGKIT [PRSS3_Y232] | 0.396
GMAHNYRNSSQ [AASS_Y188] | 0.384
EFITRYIASLK [PSMA7_Y110_YF] | 0.454
RKLVDYDSAQH [BIN1_Y150_R154Q] | 0.737
KALKQYRASPS [DDX27_Y763_G766S] | 0.368
DEQKKYYNAMK [SCN5A_Y1494_E1489D] | 0.35
GDLTDYLMKIL [ACTA1_Y190_R185G] | 0.42
ISIFYYAKGQP [MPZ_Y82_H81Y] | 0.496
QNTGDYYDLYG [PTPN11_Y62] | 1.31
PAVGIYNDNIN [CDCP1_Y707] | 0.6
KAEELYIGVTV [EFHC2_Y509] | 5.31
QNTGDYCDLFG [PTPN11_Y62_Y63C_YF] | 0.966
ETGEPYRLSPE [EIF4G1_Y311] | 0.635
MTYVFYRENLR [NLRP14_Y443] | 0.521
LAVGDYMRRQK [ATM_Y1915_V1913G] | 0.504
ADKAAYLQNLN [MYH1_Y389] | 0.53
RKQQLYIAMEE [CCDC39_Y593_T594I] | 0.607
CTTIHYNFMHN [TP53_Y234_C238H_YF] | 0.463
NVTRKYTRQIL [MAP3K2_Y463] | 0.305
KVDKEYEVHVR [GHR_Y226_R229H] | 0.498
SDFSRYARTSI [TERT_Y949_S948R_YF] | 0.358
GEDLSYGDLPP [IRS1_Y151_V154L] | 0.794
GKGGSYSKAEW [HLA-E_Y341] | 0.368
QNTGDDYDLYG [PTPN11_Y62_Y62D] | 0.674
KIRDWYQRQRP [KRT14_Y151] | 0.45

target: Fes (UniProt P07332); assay: as above
Sequence (P07332 whole entry, looked up): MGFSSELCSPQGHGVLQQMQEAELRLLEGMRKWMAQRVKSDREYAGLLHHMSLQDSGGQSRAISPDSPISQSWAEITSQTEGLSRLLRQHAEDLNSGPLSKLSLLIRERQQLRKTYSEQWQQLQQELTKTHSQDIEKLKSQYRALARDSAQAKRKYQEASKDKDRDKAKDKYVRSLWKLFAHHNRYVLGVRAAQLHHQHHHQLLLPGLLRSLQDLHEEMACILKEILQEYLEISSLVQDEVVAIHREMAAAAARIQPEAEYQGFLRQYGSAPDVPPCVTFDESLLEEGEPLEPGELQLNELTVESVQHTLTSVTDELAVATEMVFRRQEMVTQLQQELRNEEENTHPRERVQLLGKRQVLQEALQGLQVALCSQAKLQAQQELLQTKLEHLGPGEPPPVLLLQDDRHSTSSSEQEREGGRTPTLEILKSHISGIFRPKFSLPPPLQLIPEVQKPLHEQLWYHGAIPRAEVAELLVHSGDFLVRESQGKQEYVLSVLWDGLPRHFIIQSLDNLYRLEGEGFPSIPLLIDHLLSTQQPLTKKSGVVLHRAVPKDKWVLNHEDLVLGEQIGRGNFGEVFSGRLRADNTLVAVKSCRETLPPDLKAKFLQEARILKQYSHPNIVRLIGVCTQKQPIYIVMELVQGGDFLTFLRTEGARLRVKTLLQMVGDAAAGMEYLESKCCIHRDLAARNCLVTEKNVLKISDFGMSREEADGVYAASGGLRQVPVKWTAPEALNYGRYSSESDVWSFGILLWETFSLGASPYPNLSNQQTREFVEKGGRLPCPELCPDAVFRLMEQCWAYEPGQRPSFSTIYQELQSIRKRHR

Sequence | phosphorylation enrichment
GFKVRYATGSI [FGFR1_Y210_W213G_YF] | 0.689
KLADMYGGGKD [CDH1_Y876_E880K] | 0.692
HTKKNYGNSSV [HDX_Y197_A193T] | 0.656
TCFDKYTGSTF [FN1_Y101_N104S_YF] | 1.12
ECKASYPGKIT [PRSS3_Y232] | 0.596
GMAHNYRNSSQ [AASS_Y188] | 0.45
EFITRYIASLK [PSMA7_Y110_YF] | 0.806
RKLVDYDSAQH [BIN1_Y150_R154Q] | 0.988
KALKQYRASPS [DDX27_Y763_G766S] | 0.423
DEQKKYYNAMK [SCN5A_Y1494_E1489D] | 0.772
GDLTDYLMKIL [ACTA1_Y190_R185G] | 0.821
ISIFYYAKGQP [MPZ_Y82_H81Y] | 1.72
QNTGDYYDLYG [PTPN11_Y62] | 1.29
PAVGIYNDNIN [CDCP1_Y707] | 1.08
KAEELYIGVTV [EFHC2_Y509] | 1.35
QNTGDYCDLFG [PTPN11_Y62_Y63C_YF] | 1.41
ETGEPYRLSPE [EIF4G1_Y311] | 1.15
MTYVFYRENLR [NLRP14_Y443] | 1.4
LAVGDYMRRQK [ATM_Y1915_V1913G] | 0.734
ADKAAYLQNLN [MYH1_Y389] | 0.747
RKQQLYIAMEE [CCDC39_Y593_T594I] | 1.28
CTTIHYNFMHN [TP53_Y234_C238H_YF] | 1
NVTRKYTRQIL [MAP3K2_Y463] | 0.411
KVDKEYEVHVR [GHR_Y226_R229H] | 0.956
SDFSRYARTSI [TERT_Y949_S948R_YF] | 0.6
GEDLSYGDLPP [IRS1_Y151_V154L] | 1.34
GKGGSYSKAEW [HLA-E_Y341] | 0.613
QNTGDDYDLYG [PTPN11_Y62_Y62D] | 1.56
KIRDWYQRQRP [KRT14_Y151] | 0.635

target: Fyn (UniProt P06241); assay: as above
Sequence (P06241 whole entry, looked up): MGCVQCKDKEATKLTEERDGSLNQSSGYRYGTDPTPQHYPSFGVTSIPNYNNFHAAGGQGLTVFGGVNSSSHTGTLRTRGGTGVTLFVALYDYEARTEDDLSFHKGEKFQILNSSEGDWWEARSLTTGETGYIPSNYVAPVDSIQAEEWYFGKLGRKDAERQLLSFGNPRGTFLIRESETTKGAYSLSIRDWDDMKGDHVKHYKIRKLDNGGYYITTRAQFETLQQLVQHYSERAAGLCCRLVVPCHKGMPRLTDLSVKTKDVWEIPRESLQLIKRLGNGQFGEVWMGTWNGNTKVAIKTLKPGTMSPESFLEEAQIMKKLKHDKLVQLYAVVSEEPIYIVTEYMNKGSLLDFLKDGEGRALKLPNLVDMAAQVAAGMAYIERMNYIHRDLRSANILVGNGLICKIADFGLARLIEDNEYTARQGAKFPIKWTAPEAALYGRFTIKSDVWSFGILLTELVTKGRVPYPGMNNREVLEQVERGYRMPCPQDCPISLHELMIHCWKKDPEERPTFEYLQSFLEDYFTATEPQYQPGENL

Sequence | phosphorylation enrichment
GFKVRYATGSI [FGFR1_Y210_W213G_YF] | 0.417
KLADMYGGGKD [CDH1_Y876_E880K] | 0.425
HTKKNYGNSSV [HDX_Y197_A193T] | 0.337
TCFDKYTGSTF [FN1_Y101_N104S_YF] | 0.408
ECKASYPGKIT [PRSS3_Y232] | 0.319
GMAHNYRNSSQ [AASS_Y188] | 0.446
EFITRYIASLK [PSMA7_Y110_YF] | 0.495
RKLVDYDSAQH [BIN1_Y150_R154Q] | 0.4
KALKQYRASPS [DDX27_Y763_G766S] | 0.373
DEQKKYYNAMK [SCN5A_Y1494_E1489D] | 0.442
GDLTDYLMKIL [ACTA1_Y190_R185G] | 0.397
ISIFYYAKGQP [MPZ_Y82_H81Y] | 0.52
QNTGDYYDLYG [PTPN11_Y62] | 5.48
PAVGIYNDNIN [CDCP1_Y707] | 1.29
KAEELYIGVTV [EFHC2_Y509] | 2.06
QNTGDYCDLFG [PTPN11_Y62_Y63C_YF] | 0.681
ETGEPYRLSPE [EIF4G1_Y311] | 0.505
MTYVFYRENLR [NLRP14_Y443] | 0.823
LAVGDYMRRQK [ATM_Y1915_V1913G] | 0.545
ADKAAYLQNLN [MYH1_Y389] | 0.645
RKQQLYIAMEE [CCDC39_Y593_T594I] | 0.655
CTTIHYNFMHN [TP53_Y234_C238H_YF] | 0.566
NVTRKYTRQIL [MAP3K2_Y463] | 0.372
KVDKEYEVHVR [GHR_Y226_R229H] | 0.485
SDFSRYARTSI [TERT_Y949_S948R_YF] | 0.408
GEDLSYGDLPP [IRS1_Y151_V154L] | 0.571
GKGGSYSKAEW [HLA-E_Y341] | 0.415
QNTGDDYDLYG [PTPN11_Y62_Y62D] | 1.35
KIRDWYQRQRP [KRT14_Y151] | 0.4
